Results on four molecules are retold here after patent US20030170726A1, “Peptides sequences comprising one or several protein binding units of the ena/vasp family and the uses thereof” (priority 2000, published 2003).

The subject of experiment [1] is proteins of the Ena/VASP family. Kind of experiment: Actin polymerisation on beads coated with proteins binding to the Ena/VASP family (beads of the invention), in lysed cell supernatants. Format: biochemical, mammal, in particular human. The note with it: for inhibition of actin polymerisation detected using the beads of the invention: substance added to lysed mammal, in particular human, cell supernatants. An excerpt:
a stage of placing the tested molecule in the presence of a reagent as defined above, in a medium containing actin and the elements necessary for actin polymerisation defined above, in particular in an extract of lysed cell supernatant,
followed by the optional detection of an inhibition or an activation of the process of actin polymerisation at the surface of said reagent, in comparison to a control (namely a medium as described above not containing the tested molecule, and in which is found said reagent), corresponding respectively to an effect of inhibition or stimulation of the tested molecule on the formation of the actin cytoskeleton by the mechanism involving the abovementioned protein or peptide bond or their derived sequence, with a protein of the Ena protein/VASP family.
The abovementioned medium in which the tested molecule is placed in the presence of said reagent, advantageously contains a compound labelled in particular by fluorescence, making it possible to detect actin polymerisation on said reagent. By way of illustration, the abovementioned labelled compound is a fluorescent derivative of actin, such as actin-rhodamine (commercially available), making it possible to visualize actin polymerisation by epifluorescence microscopy.
The GST-ActA-Pro protein was adsorbed onto 500 nm latex beads (Polyscience Inc, 400 Valley Road, Warrington Pa., USA) according to the manufacturers' instructions.

The subject of the next experiment is Arp2/3 complex. The experiment in a line: Actin polymerisation on beads coated with WASP protein, in lysed cell supernatants. Format: biochemical. Particulars: substance added to lysed mammal, in particular human. An excerpt: a stage of placing, in a medium containing actin and the elements necessary for actin polymerisation i.e. the Arp2/3 complex, in particular in an extract of lysed cell supernatant, the tested molecule with a reagent comprising WASP family proteins in the eucaryotic cells, in particular human or of other mammal cells, or insect cells, or from micro-organisms such as yeasts, or peptide fragments of these WASP family proteins, said peptide fragments having the property of the WASP family proteins to polymerise the actin by inducing cellular motility, or peptide sequences derived from WASP family proteins or the abovementioned peptide fragments, in particular by substitution of one or more amino acids of these fragments, said derived sequences having the abovementioned property of the WASP family proteins and said fragments of the latter, said abovementioned WASP family proteins, or peptide fragments or derived sequences, being bound or adsorbed to a support as defined above,
followed by the optional detection of an inhibition or an activation of the process of actin polymerisation at the surface of said reagent, in comparison to a control, corresponding respectively to an effect of inhibition or of stimulation of the tested molecule on the formation of the actin cytoskeleton by the mechanism involving the bonding of said WASP family proteins, or abovementioned peptide fragments or derived sequences, with the Arp2/3 complex.

Experiment [2] deals with mitochondria carrying zyxin at their surface. Kind of experiment: Actin polymerisation in mitochondria carrying zyxin at their surface. Format: cell-based. An excerpt:
Furthermore, as a number of processes dependant on actin polymerisation require the recruitment and activation of the Arp2/3 complex, the Inventors have searched for the presence of this complex in the mitochondria carrying zyxin at their surface.

Take “ActA-Pro: ActA protein fragment of Listeria monocytogenes, 350 amino acids, positions 235 to 584 of SEQ ID NO 2”: the “inhibition of actin polymerisation detected using the beads of the invention” value (from here on “inhibition … of the invention”) in experiment [1] is “inhibited”. In addition, the “inhibition of actin polymerisation detected using beads coated with WASP protein” value (“inhibition … with WASP protein” below) with Arp2/3 complex is “not inhibited”.

B1: WASP: WASP protein, expressed from the WAS gene mutated in Wiskott-Aldrich Syndrome; interacts with the Arp2/3 complex (protein, UniProt P42768 2-502, looked up)
Actin nucleation-promoting …: SGGPMGGRPGGRGAPAVQQNIPSTLLQDHENQRLFEMLGRKCLTLATAVVQLYLALPPGAEHWTKEHCGAVCFVKDNPQKSYFIRLYGLQAGRLLWEQELYSQLVYSTPTPFFHTFAGDDCQAGLNFADEDEAQAFRALVQEKIQKRNQRQSGDRRQLPPPPTPANEERRGGLPPLPLHPGGDQGGPPVGPLSLGLATVDIQNPDITSSRYRGLPAPGPSPADKKRSGKKKISKADIGAPSGFKHVSHVGWDPQNGFDVNNLDPDLRSLFSRAGISEAQLTDAETSKLIYDFIEDQGGLEAVRQEMRRQEPLPPPPPPSRGGNQLPRPPIVGGNKGRSGPLPPVPLGIAPPPPTPRGPPPPGRGGPPPPPPPATGRSGPLPPPPPGAGGPPMPPPPPPPPPPPSSGNGPAPPPLPPALVPAGGLAPGGGRGALLDQIRQGIQLNKTPGAPESSALQPPPQSSEGLVGALMHVMQKRSRAIHSSDEGEDQAGDEDEDDEWDD
For B1, in experiment [1], the “inhibition … of the invention” value is “not inhibited”. In addition, in the experiment with Arp2/3 complex, the “inhibition … with WASP protein” value is reported as “inhibited”. Further, in experiment [2], the “inhibition of actin polymerisation in the mitochondria” value is reported as “does not inhibit”.

B2: GST-ActA-Pro: recombinant protein composed of GST (237 residues) and proline rich and carboxy-terminal central parts of ActA (350 residues, SEQ ID NO 6) (protein)
chain: DFPPPPTDEELRLALPETPMLLGFNAPATSEPSSFEFPPPPTDEELRLALPETPMLLGFNAPATSEPSSFEFPPPPTEDELEIIRETASSLDSSFTRGDLASLRNAINRHSQNFSDFPPIPTEEELNGRGGRPTSEEFSSLNSGDFTDDENSETTEEEIDRLADLRDRGTGKHSRNAGFLPLNPFASSPVPSLSPKVSKISAPALISDITKKTPFKNPSQPLNVFNKKTTTKTVTKKPTPVKTAPKLAELPATKPQETVLRENKTPFIEKQAETNKQSINMPSLPVIQKEATESDKEEMKPQTEEKMVEESESANNANGKNRSAGIEEGKLIAKSAEDEKAKEEPGNHTT
In the case of B2, the “nucleation of actin by the coated beads” value in experiment [1] (protein adsorbed onto 500 nm latex beads, added to extracts prepared from cells) is on record as “capable of nucleating the actin”.

B3: N-WASP: N-WASP protein, approximately 45% sequence identity with human WASP protein; interacts with the Arp2/3 complex (protein, UniProt O00401 2-505, looked up)
Actin nucleation-promoting …: SSVQQQPPPPRRVTNVGSLLLTPQENESLFTFLGKKCVTMSSAVVQLYAADRNCMWSKKCSGVACLVKDNPQRSYFLRIFDIKDGKLLWEQELYNNFVYNSPRGYFHTFAGDTCQVALNFANEEEAKKFRKAVTDLLGRRQRKSEKRRDPPNGPNLPMATVDIKNPEITTNRFYGPQVNNISHTKEKKKGKAKKKRLTKADIGTPSNFQHIGHVGWDPNTGFDLNNLDPELKNLFDMCGISEAQLKDRETSKVIYDFIEKTGGVEAVKNELRRQAPPPPPPSRGGPPPPPPPPHNSGPPPPPARGRGAPPPPPSRAPTAAPPPPPPSRPSVAVPPPPPNRMYPPPPPALPSSAPSGPPPPPPSVLGVGPVAPPPPPPPPPPPGPPPPPGLPSDGDHQVPTTAGNKAALLDQIREGAQLKKVEQNSRPVSCSGRDALLDQIRQGIQLKSVADGQESTPPTPAPTSGIVGALMEVMQKRSKAIHSSDEDEDEDDEEDFEDDDEWED
Take B3: in experiment [1], the “inhibition … of the invention” value is reported as “not inhibited”. Besides, the “inhibition … with WASP protein” value in the experiment on Arp2/3 complex is on record as “inhibited”.
